Results as given in patent publication US20220395579A1 (Daiichi Sankyo, published 2022).
Changes are numbered by the printed parent chain.

T1: human CLDN4 (human, UniProt O14493 1-209)
T1 construct: whole, on cells; Transfection was confirmed with an anti-FLAG antibody, so the construct may carry a tag
T1 sequence (looked up): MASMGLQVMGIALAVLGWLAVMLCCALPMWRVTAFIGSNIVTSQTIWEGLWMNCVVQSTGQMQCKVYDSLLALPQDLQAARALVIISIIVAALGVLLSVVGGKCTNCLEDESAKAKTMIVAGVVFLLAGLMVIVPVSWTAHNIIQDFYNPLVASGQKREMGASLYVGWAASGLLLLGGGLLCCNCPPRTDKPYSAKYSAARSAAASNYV

T2: human CLDN9 (human, UniProt O95484 1-217)
T2 construct: It was expressed on 293T cells from human CLDN9/pCMV6-Entry bought from OriGene; also called claudin-9
T2 sequence: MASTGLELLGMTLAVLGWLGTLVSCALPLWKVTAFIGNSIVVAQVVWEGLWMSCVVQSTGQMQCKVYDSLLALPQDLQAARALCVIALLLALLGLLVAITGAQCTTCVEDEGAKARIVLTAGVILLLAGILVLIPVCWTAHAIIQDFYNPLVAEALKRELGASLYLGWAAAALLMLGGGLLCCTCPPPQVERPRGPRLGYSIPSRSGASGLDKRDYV

T3: human CLDN3 (human, UniProt O15551 1-220)
T3 construct: whole, on cells; Transfection was confirmed with an anti-FLAG antibody, so the construct may carry a tag
T3 sequence (looked up): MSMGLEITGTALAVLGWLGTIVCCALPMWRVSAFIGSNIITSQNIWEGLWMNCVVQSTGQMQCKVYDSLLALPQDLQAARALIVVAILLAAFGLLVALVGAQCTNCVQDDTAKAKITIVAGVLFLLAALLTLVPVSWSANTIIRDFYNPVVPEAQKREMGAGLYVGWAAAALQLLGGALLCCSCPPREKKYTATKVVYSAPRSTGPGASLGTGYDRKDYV

T4: human CLDN6 (human, UniProt P56747 1-220)
T4 construct: In the flow cytometry it was expressed on 293T cells from human CLDN6/pCMV-Entry bought from OriGene; It was also expressed on CHO-K1 cells by cDNA transfection, and the endogenous protein was immunoprecipitated from NTERA-2 cell lysate; also called claudin-6; hCLDN6
T4 sequence: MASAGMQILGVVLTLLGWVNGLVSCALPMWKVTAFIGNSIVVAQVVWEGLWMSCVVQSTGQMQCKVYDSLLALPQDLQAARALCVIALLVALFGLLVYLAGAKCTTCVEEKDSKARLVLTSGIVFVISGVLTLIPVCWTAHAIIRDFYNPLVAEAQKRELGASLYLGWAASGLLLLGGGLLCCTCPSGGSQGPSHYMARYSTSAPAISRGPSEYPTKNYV

B1: mouse anti-CLDN6 antibody B1 (antibody, V domains shown)
VH: EVQLQQSGPELVKPGASVKISCKTSGYTFTEYTMHWVQQSHGKSLEWIGGVNPNSGDTSYNQKFKGKATLTVDKSSSTAYMELRSLTSEDSAVYYCARPGGYDVGYYAMDYWGQGTSVTVSS
VL: DIQMTQTASSLSASLGDRVTISCRASQDINNYLNWYQQKPDGTVKLLIYFTSRLHSGVPSRFSGSGSGTHYSLTITNLEQEDIATYFCQQGYPLPWTFGGGTKLEIK
notes: Mouse monoclonal antibody purified from the culture supernatant of hybridoma 218B1; a mouse IgG1 was used as the control; also called B1 antibody; 218B1
B2: mouse anti-CLDN6 antibody C7 (antibody, V domains shown)
VH: B1 VH
VL: B1 VL with F50S, N77H
notes: Mouse monoclonal antibody purified from the culture supernatant of hybridoma 218C7; also called C7 antibody; 218C7
B3: humanized anti-CLDN6 antibody H1L3 (antibody, human IgG1, kappa, L234A L235A, V domains shown)
VH: QVQLVQSGAEVKKPGASVKVSCKASGYTFTEYTMHWVRQAPGQGLEWMGGVNPNSGDTSYAQKFQGRVTITADTSTSTAYMELSSLRSEDTAVYYCARPGGYDVGYYAMDYWGQGTLVTVSS
VL: DIQMTQSPSSLSASVGDRVTITCRASQDINNYLNWYQQKPGGAVKLLIYFTSRLHSGVPSRFSGSGSGTDYTLTISSLQPEDFATYYCQQGYPLPWTFGGGTKVEIKR
notes: Heavy chain hH1 with light chain hL3; Human IgG1 LALA constant region and human kappa light chain; also called H1L3 antibody
B4: humanized anti-CLDN6 antibody H2L2 (antibody, human IgG1, kappa, L234A L235A, V domains shown)
VH: B3 VH with Q1E, A24T, Q43K, G44S
VL: B3 VL with G42K, D70H, G100Q
notes: Heavy chain hH2 with light chain hL2; Human IgG1 LALA constant region and human kappa light chain; also called H2L2 antibody
B5: humanized anti-CLDN6 antibody H2L4 (antibody, human IgG1, kappa, L234A L235A, V domains shown)
VH: B3 VH with Q1E, A24T, Q43K, G44S
VL: B3 VL with Y92N, P93T
notes: Human IgG1 LALA constant region and human kappa light chain; also called H2L4 antibody
B6: humanized anti-CLDN6 antibody H1L1 (antibody, human IgG1, kappa, L234A L235A, V domains shown)
VH: B3 VH
VL: B3 VL with G42K, V44P, G100Q
notes: Heavy chain hH1 with light chain hL1; Human IgG1 LALA constant region and human kappa light chain; also called H1L1 antibody
B7: humanized anti-CLDN6 antibody H3L3 (antibody, human IgG1, kappa, L234A L235A, V domains shown)
VH: B3 VH with Q1E, A24T, I70L, A72V, T74K
VL: B3 VL
notes: Heavy chain hH3 with light chain hL3; Human IgG1 LALA constant region and human kappa light chain; also called H3L3 antibody

What follows are binders tested against T1, human CLDN4 (assay: flow cytometry on 293T cells transiently transfected with human CLDN4).

binding result | Binder
no binding | B1
no binding | B2
no binding (tested: 100 nM) | B3
no binding (tested: 100 nM) | B4
no binding (tested: 100 nM) | B5
no binding (tested: 100 nM) | B6
no binding (tested: 100 nM) | B7

Each binder was assayed against T2, human CLDN9 (assay: flow cytometry on 293T cells transiently transfected with human CLDN9).
Procedure: (§1) The binding activity of the humanized anti-CLDN6 antibody produced in Example 136 to human CLDN6 and its family molecules, CLDN3, CLDN4, and CLDN9, was evaluated by using a flow cytometry method. […] The cells were washed with Dulbecco's phosphate buffered saline (Sigma-Aldrich Co. LLC) containing 5% fetal bovine serum (Hyclone) (hereinafter, referred to as 5% FBS-containing PBS), and FITC AffiniPureF (ab′)₂ Fragment Goat Anti-Human IgG (H+L) (Jackson ImmunoResearch Laboratories Inc.) 150-fold diluted with 5% FBS-containing PBS was then added thereto, and the cells were suspended and left to stand at 4° C. for 30 minutes. After washing with 5% FBS-containing PBS, detection was carried out by using a flow cytometer (FC500; Beckman Coulter, Inc.). Data analysis was carried out by using FlowJo (Tree Star, Inc.), and mean fluorescence intensity (MFI) of FITC, which indicates the amount of the binding antibody, was calculated. […] In each graph in FIG. 42, the abscissa represents antibody concentrations and the ordinate represents MFI.

binding result | Binder
binds | B1
binds | B2
binds | B3
binds | B4
binds | B5
binds | B6
binds | B7

Each binder was assayed against T3, human CLDN3 (assay: flow cytometry on 293T cells transiently transfected with human CLDN3).

binding result | Binder
no binding | B1
no binding | B2
no binding (tested: 100 nM) | B3
no binding (tested: 100 nM) | B4
no binding (tested: 100 nM) | B5
no binding (tested: 100 nM) | B6
no binding (tested: 100 nM) | B7

What follows are binders tested against T4, human CLDN6 (assay: flow cytometry on 293T cells transiently transfected with human CLDN6).
Procedure: as §1

binding result | Binder
binds | B3
binds | B4
binds | B5
binds | B6
binds | B7

What follows are binders tested against T4, human CLDN6 (assay: FACS on CHO-K1 cells transfected with human claudin-6 cDNA).

binding result | Binder
binds | B2

These binders were tested against T4, human CLDN6 (assay: immunoprecipitation from NTERA-2 cell lysate with the antibody, SDS-PAGE, mass spectrometry of the 18 kDa band).
Procedure: 2×10⁷ NTERA-2 cells were collected and washed twice with PBS. The cells were collected by using a cell scraper, and centrifuged at 1500 rpm for 5 minutes. After the supernatant was removed, the cells were resuspended in 2 mL of the lysis buffer, and treated at 4° C. for 30 minutes. The resultant was centrifuged (13000 rpm, 20 minutes, 4° C.) to prepare a cell lysate. Protein G Sepharose/lysis buffer (50% slurry; 180 μL) was added to the cell lysate, and the resultant was rotated at 4° C. for 30 minutes and then centrifuged at 4° C. for 1 hour, and the supernatant was collected. […] The Protein G Sepharose was washed six times with the lysis buffer (1 mL), and then resuspended in 1×SDS sample buffer. After the suspension was treated at 100° C. for 5 minutes, the solution was collected as a sample for SDS-PAGE. SDS-PAGE was carried out in the same manner as in 2-2), and the electrophoresis gel was stained with CBB. The part corresponding to 18 kDa was cut out of the electrophoresis gel, and subjected to mass spectrometry.

binding result | Binder
binds | B1
